Drawing on PMC11338267, “Phosphoglycerate kinase is a central leverage point in Parkinson’s disease–driven neuronal metabolic deficits” (Science Advances, 2024), this text covers Kd for one molecule.

The assay addresses T1, untagged PGK1 (phosphoglycerate kinase 1), cleaved from His-SUMO-PGK1 (UniProt P00558 1-417).
T1 construct: phosphoglycerate kinase 1 (PGK1), full-length protein; also called His-tagged SUMO-PGK1; cleaved PGK1; source: E. coli BL21 (DE3), purified (Ni-NTA, SUMO protease cleavage, second Ni-NTA flow-through, Superdex200 gel filtration)
T1 sequence (looked up): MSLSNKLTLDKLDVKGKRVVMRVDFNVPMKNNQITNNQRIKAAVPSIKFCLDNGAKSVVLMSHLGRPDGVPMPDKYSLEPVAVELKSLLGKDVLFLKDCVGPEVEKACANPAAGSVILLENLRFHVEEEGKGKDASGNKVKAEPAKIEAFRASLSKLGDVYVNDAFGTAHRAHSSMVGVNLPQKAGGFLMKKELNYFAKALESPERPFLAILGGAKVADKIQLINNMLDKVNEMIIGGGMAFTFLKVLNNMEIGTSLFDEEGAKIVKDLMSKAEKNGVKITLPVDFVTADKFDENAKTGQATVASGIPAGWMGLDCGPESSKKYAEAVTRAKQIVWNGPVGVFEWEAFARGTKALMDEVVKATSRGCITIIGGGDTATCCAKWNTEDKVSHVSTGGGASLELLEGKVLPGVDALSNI
In words: MST; His-DJ-1 labelled with RED-tris-NTA (10 ul of 100 nM added to each sample), PGK1 titrated in a 16-step 1:1 serial dilution from a 152 uM stock; PBS-T buffer; 30 min at room temperature in the dark; Monolith NT.115, 40% LED, medium MST power. As to conditions: both partners purified.

B1: His-tagged DJ-1 full-length protein (natural protein, UniProt Q99497 1-189, looked up)
chain: MASKRALVILAKGAEEMETVIPVDVMRRAGIKVTVAGLAGKDPVQCSRDVVICPDASLEDAKKEGPYDVVVLPGGNLGAQNLSESAAVKEILKEQENRKGLIAAICAGPTALLAHEIGFGSKVTTHPLAKDKMMNGGHYTYSENRVEKDGLILTSRGPGTSFEFALAIVEALNGKEVAAQVKAPLVLKD
notes: DJ-1 (product of the PARK7 gene), full-length protein; For MST the His tag was labelled non-covalently with the dye RED-tris-NTA; also called His-DJ-1; PARK7/DJ-1; source: E. coli BL21 (DE3), purified (Ni-NTA, Superdex200 gel filtration)
B1: the Kd was ~15 µM.
